The source of these data is US20260062464A1.

Substitutions are numbered along the chain they refer to.

Test [1] has as its target recombinant N2 neuraminidase of A/Moscow/10/1999 (H3N2) (Influenza A virus A/Moscow/10/1999 (H3N2)). The experiment in a line: BLI, NA on biosensor, Fab in solution, 1:1 fit.
The target of test [2] is recombinant N2 neuraminidase of A/Wisconsin/67/2005 (H3N2) (Influenza A virus A/Wisconsin/67/2005 (H3N2)). The experiment in a line: BLI, NA on biosensor, Fab in solution, 1:1 fit.
Test [3] shares this target. The experiment in a line: ELISA on plate-coated recombinant NA, absorbance 450 nm.

B1: Fab of NDS.1 (Fab, V domains shown)
VH: QVQLRQWGAGLLKPSETLSLTCDVYGGSFNFYFWTWIRQPPGKGLEWLGEITHSGSATYIPSLKSRVTLSVDTSKGQFSLKLTSVNVADTAVYYCAGLPIDYDTVHLGYYPMDVWGQGTPVTVSS
VL: DIQMTQSPSSLSASVGDRVTITCRASQGIRNYLAWYQQKPGKVPKLLIYGASTLQSGVPSRFSGSGSGTDFSLTISSLQPEDIATYFCQEYNNAPRTFGQGTKVEIK
Regarding B1, in test [1], the Kd was 0.217 nM, the koff came to 1.16e-05 s⁻¹ and the kon was found to be 53300 M⁻¹ s⁻¹. Also, in test [2], the Kd was 75.6 nM, the koff was determined as 0.00431 s⁻¹ and the kon amounted to 57000 M⁻¹ s⁻¹.

B2: Fab of NDS.1.1 (Fab, V domains shown)
VH: QVQIQQWGAGLLKPSDTLSLTCSVYGGSFNFYYWTWVRQPPGKGLEWLAEINHSGSINYIPSLNSRVALSVDTSKGQFSLRLSSVTAADTAVYYCTGVPIDYESLHLGYYPMDVWGQGTPVIVSS
VL: B1 VL with R30S, Y36W, K42Q, G50A, E81D, I83V, T85I, F87Y, E90K, N93S
As for B2, in test [1], the Kd was determined as 8.31 nM, the koff was determined as 0.000187 s⁻¹ and the kon came to 22500 M⁻¹ s⁻¹. In addition, in test [2], the Kd was 136 nM, the koff came to 0.00565 s⁻¹ and the kon came out at 41500 M⁻¹ s⁻¹.

B3: NDS.5 monoclonal antibody (antibody, V domains shown)
VH: QLRLQESGPGLVKPSETLSLTCTVSGGSITSSPYYWGWIRQPPGKGLEWIGSIYYSGSTYYNPSLRSRVTISLDTSMNQFSLKLSSVTAADTAVYYCAEEYYDFWRTQDWGQGTLVTVSS
VL: EIVLTQSPGTLSLSPGERATISCRASQSVSGRNLAWYQQKPGQAPRLLIYAASNRATGIPDRFSGSGSGTDFTLTISRLEPEDFAVYYCQQYGTSKTFGQGTKVEIK
Turning to B3, in test [3], the EC50 (read off the curve) was 0.05 µg/mL.

B4: NDS.6 monoclonal antibody (antibody, V domains shown)
VH: QVQLVQSGPEVKKPGASVKVSCKASGYNFNRYGLTWVRQAPGQGLEWMGWISTYNSDTIYAREFRGRVTLTTDTSTRTAYMELRSLISADTAVYYCARDNVEEAFPISYYFDHWGQGTLVSVSS
VL: QSALTQPRSVSGSPGQSVTISCTGTSSDVGLYNYVSWYQHHPGKAPKFLIYDVTKRPSGVPDRFSGSKSGNTASLTISGLQAEDEADYYCCSYVGSYILVFGGGTKVTVL
For B4, in test [3], the EC50 (read off the curve) turned out to be 0.2 µg/mL.

B5: Fab of NDS.3 (Fab, V domains shown)
VH: EVQLVESGGGLVKPGGSLRLSCAASGFTFSDYSMTWIRQIPGKGLEWLSYTTSSGRPIFYADSVKGRFTMSRDNAKMSVYLQMNSLRDADSAVYYCARGDPHYIWGTYLDSWGPGTLVTVSS
VL: QSALTQPPSASGSPGQSVTISCTGTTSDFGDHNYVSWYQQRPGEAPKLIIYDVSKRPSGVPDRFSGSKSGNTASLTVSRLQADDEANYYCSSIEGSNTLLFGGGTKLTVL
As to B5, in test [1], the Kd turned out to be 18.9 nM, the koff turned out to be 0.000517 s⁻¹ and the kon is 27400 M⁻¹ s⁻¹. Besides, in test [2], the Kd was 60.9 nM, the koff is 0.00527 s⁻¹ and the kon was determined as 86500 M⁻¹ s⁻¹.
